# From paper PMC4643112, “Diversity of hydrolases from hydrothermal vent sediments of the Levante Bay, Vulcano Island (Aeolian archipelago) identified by activity-based metagenomics and biochemical characterization of new esterases and an arabinopyranosidase” (Applied Microbiology and Biotechnology, 2015)
# B1: LIPESV12_26 (Rhodothermus profundi) (protein)
# chain: MPHPTIQTVDLAYRSYGTEGPPLLILHGLLGSSGNWHTLARNAFSPHFRVFALDLRGHGRSPHAHPIDYPTMAADVQAFMDRHHLESAHVLGHSMGGKVAMELALSAPERVRRLVVVDIAPRSYPARHRTILDALQAIDPARYANRQAIDQALATYVPEAPIRQFLLKNLLYNPATRRYTWQVDLDGLVRYYDRINAAITDGRQFTGPVLFVRGARSDYLTEADWPTIRQLFPDACLATIPEAGHWVHADAPEAFAHLVLAFLQEKSGCVSSSKS
# notes: full length, 275 residues, His6-tagged (pET-46c Ek/LIC), E. coli BL21(DE3); primers (translated) start MPHPTIQ, end VSSSKS; catalytic S94, D218, H245
# Substrate: CCCC(=O)Oc1ccc([N+](=O)[O-])cc1
# Assay: colorimetric p-nitrophenol release
# Type: biochemical, Rhodothermus profundi
# Conditions: 50 mM potassium phosphate pH 7.0, 0.1 % Triton X-100, standard assay, substrate varied 1-40 mM as printed
protein,measurement,value
B1,Km,100 µM
